The record followed here is patent US20140274782A1, “AFFINITY REAGENTS AND METHODS FOR DETECTION, PURIFICATION, AND PROTEOMIC ANALYSIS OF METHYLATED PROTEINS” (The Board of Trustees of the Leland Stanford Junior …, priority 2013, published 2014).

One experiment concerns 3×MBT domain of L3MBTL1. Nature of the experiment: Triple SILAC pull-down, 3xMBT/3xMBTD355N ratio (cytoplasmic, nuclear and chromatin fractions of 293T cells).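 On all read-outs here: proteins quantified with MaxQuant, requiring at least two unique peptides and quantification in both label directions, normalized to the mean of proteins from a digested loading control.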 The class given is binding, human. The settings on record: for 3xMBT/D355N UNC Heavy: experiment with UNC0638 in heavy SILAC media; for 3xMBT/D355N UNC Light: experiment with UNC0638 in light SILAC media.
The next experiment addresses T1, G9a and GLP (Homo sapiens, UniProt Q96KQ7+Q9H9B1).
T1 construct: endogenous in cells; host or cells: HEK 293T
T1 sequence (Q96KQ7 2-1210 limits assumed): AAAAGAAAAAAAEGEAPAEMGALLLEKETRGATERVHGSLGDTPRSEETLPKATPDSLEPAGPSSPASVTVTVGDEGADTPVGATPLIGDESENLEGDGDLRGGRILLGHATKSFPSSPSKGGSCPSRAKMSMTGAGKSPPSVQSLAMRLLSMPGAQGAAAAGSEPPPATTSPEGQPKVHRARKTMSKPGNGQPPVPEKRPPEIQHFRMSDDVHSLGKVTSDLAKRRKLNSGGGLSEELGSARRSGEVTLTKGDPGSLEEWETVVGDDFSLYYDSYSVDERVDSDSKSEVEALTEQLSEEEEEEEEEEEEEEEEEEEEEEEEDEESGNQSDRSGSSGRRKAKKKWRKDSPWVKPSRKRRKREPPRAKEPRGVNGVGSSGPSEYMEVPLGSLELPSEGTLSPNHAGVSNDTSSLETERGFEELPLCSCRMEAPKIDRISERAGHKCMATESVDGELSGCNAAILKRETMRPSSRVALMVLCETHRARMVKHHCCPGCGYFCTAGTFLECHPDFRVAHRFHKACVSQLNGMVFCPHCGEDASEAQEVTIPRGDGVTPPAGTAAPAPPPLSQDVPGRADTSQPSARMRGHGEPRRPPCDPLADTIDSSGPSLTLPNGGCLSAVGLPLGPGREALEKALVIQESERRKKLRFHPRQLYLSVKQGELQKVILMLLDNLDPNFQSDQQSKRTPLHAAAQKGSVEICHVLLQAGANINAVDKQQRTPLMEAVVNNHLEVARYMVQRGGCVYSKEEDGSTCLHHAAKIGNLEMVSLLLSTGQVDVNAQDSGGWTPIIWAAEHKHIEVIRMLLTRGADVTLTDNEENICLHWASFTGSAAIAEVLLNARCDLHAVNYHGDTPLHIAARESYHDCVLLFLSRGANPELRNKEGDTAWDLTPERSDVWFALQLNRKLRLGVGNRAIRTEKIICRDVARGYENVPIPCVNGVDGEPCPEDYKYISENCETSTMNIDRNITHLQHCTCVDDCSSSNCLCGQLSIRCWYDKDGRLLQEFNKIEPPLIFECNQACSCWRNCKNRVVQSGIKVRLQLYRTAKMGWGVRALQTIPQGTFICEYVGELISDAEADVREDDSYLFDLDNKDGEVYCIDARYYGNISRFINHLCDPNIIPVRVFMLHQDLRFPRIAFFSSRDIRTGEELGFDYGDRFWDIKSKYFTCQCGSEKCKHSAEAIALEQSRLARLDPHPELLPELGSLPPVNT
T1 sequence (Q9H9B1 2-1298 limits assumed): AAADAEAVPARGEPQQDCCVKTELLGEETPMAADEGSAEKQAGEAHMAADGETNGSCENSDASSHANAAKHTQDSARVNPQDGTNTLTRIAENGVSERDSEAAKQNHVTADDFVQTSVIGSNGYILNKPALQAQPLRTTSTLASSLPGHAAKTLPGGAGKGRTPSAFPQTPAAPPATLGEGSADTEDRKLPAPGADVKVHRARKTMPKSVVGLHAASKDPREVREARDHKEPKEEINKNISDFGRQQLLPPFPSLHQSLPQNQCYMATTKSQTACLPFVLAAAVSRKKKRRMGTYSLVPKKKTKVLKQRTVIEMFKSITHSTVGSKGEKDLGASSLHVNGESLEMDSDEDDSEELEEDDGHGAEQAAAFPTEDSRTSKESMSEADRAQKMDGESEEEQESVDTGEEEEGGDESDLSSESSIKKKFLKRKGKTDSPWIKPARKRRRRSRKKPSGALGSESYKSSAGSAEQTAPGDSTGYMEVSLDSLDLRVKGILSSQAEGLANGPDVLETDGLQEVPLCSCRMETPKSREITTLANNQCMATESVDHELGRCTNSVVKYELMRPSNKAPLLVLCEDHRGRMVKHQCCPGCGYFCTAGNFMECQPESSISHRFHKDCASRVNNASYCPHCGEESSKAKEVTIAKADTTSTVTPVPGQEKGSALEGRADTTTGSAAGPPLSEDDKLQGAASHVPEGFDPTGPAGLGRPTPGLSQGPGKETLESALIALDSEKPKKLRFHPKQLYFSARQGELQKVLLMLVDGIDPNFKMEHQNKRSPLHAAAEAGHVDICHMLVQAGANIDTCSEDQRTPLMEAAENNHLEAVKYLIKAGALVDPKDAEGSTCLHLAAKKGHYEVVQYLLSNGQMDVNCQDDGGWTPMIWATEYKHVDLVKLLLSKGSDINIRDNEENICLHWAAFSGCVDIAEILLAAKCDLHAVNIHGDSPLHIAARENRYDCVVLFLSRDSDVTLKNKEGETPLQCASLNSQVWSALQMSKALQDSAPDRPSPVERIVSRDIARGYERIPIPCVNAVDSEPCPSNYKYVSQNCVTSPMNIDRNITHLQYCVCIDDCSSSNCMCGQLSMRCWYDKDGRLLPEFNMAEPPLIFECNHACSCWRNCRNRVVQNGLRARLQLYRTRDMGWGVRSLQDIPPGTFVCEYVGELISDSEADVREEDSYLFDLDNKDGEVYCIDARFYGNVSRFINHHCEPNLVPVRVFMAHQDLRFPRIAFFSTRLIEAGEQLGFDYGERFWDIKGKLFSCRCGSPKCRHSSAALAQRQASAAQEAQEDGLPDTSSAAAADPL
The experiment is described as follows: Triple SILAC pull-down after UNC0638 treatment of 293T cells, DMSO/UNC0638 ratio of protein captured by 3×MBT.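 On all read-outs here: mass spectrometry (Q-Exactive) SILAC quantitation, DMSO/UNC0638 ratio computed after subtracting 3×MBTD355N mutant pull-down background, only proteins with at least twofold 3×MBT over mutant signal considered.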 The class given is cell-based. The conditions noted are these: for Relative to UNC0638 UNC Heavy: UNC0638 in heavy SILAC media; for Relative to UNC0638 UNC Light: UNC0638 in light SILAC media; for Relative to UNC0638 Average: average of UNC Light and UNC Heavy experiments.

Setting [1] is: SILAC ratio 3xMBT vs 3xMBTD355N pull-down, 293T cells, all values in log base 2.
[2] abbreviates: SILAC ratio DMSO relative to UNC0638, pull-down with 3xMBT, all values in log base 2.
[3] abbreviates: SILAC ratio, pull-down 3xMBT vs 3xMBTD355N.
[4] abbreviates: SILAC ratio DMSO/UNC0638 of protein pulled down with 3xMBT.

UHRF1: in the experiment with 3×MBT domain of L3MBTL1 (setting [1]), the “3xMBT/D355N UNC Heavy” value was determined as 3.68 log base 2 and the “3xMBT/D355N UNC Light” value is 2.24 log base 2. Moreover, in the experiment with G9a and GLP (setting [2]), the “Relative to UNC0638 UNC Heavy” value is recorded as 0.54 log base 2 and the “Relative to UNC0638 UNC Light” value was −0.45 log base 2. The “Relative to UNC0638 Average” value with G9a and GLP (all values in log base 2) is given as 0.04 log base 2.
For ELAVL1, in the experiment on 3×MBT domain of L3MBTL1 (setting [3]), the “3xMBT/D355N UNC Heavy” value worked out at 1.93 log base 2 and the “3xMBT/D355N UNC Light” value is 2.42 log base 2. Besides, in the experiment with G9a and GLP (setting [4]), the “Relative to UNC0638 UNC Heavy” value is on record as 0.21 log base 2 and the “Relative to UNC0638 UNC Light” value is 0.36 log base 2. For the same substance, in the experiment with G9a and GLP, the “Relative to UNC0638 Average” value is 0.29 log base 2.
EEF1G: in the experiment on 3×MBT domain of L3MBTL1 (setting [1]), the “3xMBT/D355N UNC Heavy” value is given as −0.67 log base 2 and the “3xMBT/D355N UNC Light” value was −0.28 log base 2. Moreover, in the experiment with G9a and GLP (setting [2]), the “Relative to UNC0638 UNC Heavy” value is on record as −0.03 log base 2 and the “Relative to UNC0638 UNC Light” value was −0.77 log base 2. In the experiment with G9a and GLP (all values in log base 2), the “Relative to UNC0638 Average” value is recorded as −0.40 log base 2.
Take USP10: in the experiment with 3×MBT domain of L3MBTL1 (setting [3]), the “3xMBT/D355N UNC Heavy” value was determined as 2.00 log base 2 and the “3xMBT/D355N UNC Light” value is 2.13 log base 2. Also, in the experiment with G9a and GLP (setting [4]), the “Relative to UNC0638 UNC Heavy” value was found to be 0.57 log base 2 and the “Relative to UNC0638 UNC Light” value is −0.05 log base 2. The “Relative to UNC0638 Average” value in the experiment with G9a and GLP was determined as 0.26 log base 2.
Regarding GRB2, in the experiment on 3×MBT domain of L3MBTL1 (setting [1]), the “3xMBT/D355N UNC Heavy” value was 3.13 log base 2 and the “3xMBT/D355N UNC Light” value is listed as 1.36 log base 2. In the experiment with G9a and GLP (setting [2]), the “Relative to UNC0638 UNC Heavy” value is 0.36 log base 2 and the “Relative to UNC0638 UNC Light” value is given as −0.45 log base 2. Moreover, the “Relative to UNC0638 Average” value with G9a and GLP (all values in log base 2) was −0.05 log base 2.
For CSNK2B, in the experiment on 3×MBT domain of L3MBTL1 (setting [1]), the “3xMBT/D355N UNC Heavy” value worked out at 2.83 log base 2 and the “3xMBT/D355N UNC Light” value is 2.65 log base 2. In the experiment with G9a and GLP (setting [2]), the “Relative to UNC0638 UNC Heavy” value amounted to 0.21 log base 2 and the “Relative to UNC0638 UNC Light” value is on record as −0.01 log base 2. The “Relative to UNC0638 Average” value with G9a and GLP (all values in log base 2) was found to be 0.10 log base 2.
Take FXR1: in the experiment on 3×MBT domain of L3MBTL1 (setting [3]), the “3xMBT/D355N UNC Heavy” value is listed as 1.60 log base 2 and the “3xMBT/D355N UNC Light” value is 1.73 log base 2. For the same substance, in the experiment with G9a and GLP (setting [4]), the “Relative to UNC0638 UNC Heavy” value is 1.23 log base 2 and the “Relative to UNC0638 UNC Light” value is −1.01 log base 2. Further, the “Relative to UNC0638 Average” value in the experiment with G9a and GLP came to 0.11 log base 2.
Regarding GRWD1, in the experiment with 3×MBT domain of L3MBTL1 (setting [3]), the “3xMBT/D355N UNC Heavy” value was found to be 2.87 log base 2 and the “3xMBT/D355N UNC Light” value is given as 2.55 log base 2. Moreover, in the experiment with G9a and GLP (setting [4]), the “Relative to UNC0638 UNC Heavy” value came to 0.24 log base 2 and the “Relative to UNC0638 UNC Light” value was 0.09 log base 2. Besides, in the experiment with G9a and GLP, the “Relative to UNC0638 Average” value was 0.17 log base 2.
For the substance DDX39A, in the experiment with 3×MBT domain of L3MBTL1 (setting [3]), the “3xMBT/D355N UNC Heavy” value was found to be 2.00 log base 2 and the “3xMBT/D355N UNC Light” value came to 1.53 log base 2. In addition, in the experiment with G9a and GLP (setting [4]), the “Relative to UNC0638 UNC Heavy” value came out at 0.36 log base 2 and the “Relative to UNC0638 UNC Light” value is 0.01 log base 2. The “Relative to UNC0638 Average” value in the experiment with G9a and GLP came out at 0.18 log base 2.
In the case of PRKDC, in the experiment on 3×MBT domain of L3MBTL1 (setting [3]), the “3xMBT/D355N UNC Heavy” value was 1.96 log base 2 and the “3xMBT/D355N UNC Light” value is 2.39 log base 2. Further, in the experiment with G9a and GLP (setting [4]), the “Relative to UNC0638 UNC Heavy” value is on record as 0.21 log base 2 and the “Relative to UNC0638 UNC Light” value is listed as 0.95 log base 2. Further, in the experiment with G9a and GLP, the “Relative to UNC0638 Average” value was 0.58 log base 2. The “Candidate G9a/GLP target” value with G9a and GLP (reduced association with 3xMBT after UNC0638 treatment) is “✓”.
As for SH3GL1, in the experiment with 3×MBT domain of L3MBTL1 (setting [3]), the “3xMBT/D355N UNC Heavy” value was found to be 1.99 log base 2 and the “3xMBT/D355N UNC Light” value was 2.38 log base 2. For the same substance, in the experiment with G9a and GLP (setting [4]), the “Relative to UNC0638 UNC Heavy” value was determined as 0.60 log base 2 and the “Relative to UNC0638 UNC Light” value was −0.23 log base 2. In the experiment with G9a and GLP, the “Relative to UNC0638 Average” value is listed as 0.19 log base 2.
For the substance NUMA1, in the experiment on 3×MBT domain of L3MBTL1 (setting [3]), the “3xMBT/D355N UNC Heavy” value is 0.83 log base 2 and the “3xMBT/D355N UNC Light” value came out at 3.33 log base 2. In addition, in the experiment with G9a and GLP (setting [4]), the “Relative to UNC0638 UNC Heavy” value is 0.90 log base 2 and the “Relative to UNC0638 UNC Light” value was −0.32 log base 2. Also, in the experiment with G9a and GLP, the “Relative to UNC0638 Average” value stood at 0.29 log base 2.
In the case of DNM2, in the experiment with 3×MBT domain of L3MBTL1 (setting [3]), the “3xMBT/D355N UNC Heavy” value amounted to 0.05 log base 2 and the “3xMBT/D355N UNC Light” value is 0.57 log base 2. In addition, the “Relative to UNC0638 UNC Light” value with G9a and GLP (setting [4]) turned out to be 0.54 log base 2. Besides, the “Relative to UNC0638 Average” value in the experiment with G9a and GLP is listed as 0.54 log base 2.
